# Reference: publication PMC12586476, “Molecular mechanism and structural models of protein-mediated copper transfer to the Arabidopsis thaliana ethylene receptor ETR1 at the ER membrane” (Scientific Reports, 2025)
# T1: Arabidopsis copper chaperone CCH (Arabidopsis thaliana, UniProt O82089 1-121, AlexaFluor 488 label)
# T1 construct: Copper chaperone CCH, Arabidopsis thaliana
# T1 sequence (looked up): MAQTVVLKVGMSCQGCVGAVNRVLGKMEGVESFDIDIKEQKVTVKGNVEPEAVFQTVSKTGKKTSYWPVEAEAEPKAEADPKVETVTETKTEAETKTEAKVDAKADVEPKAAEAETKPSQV
# T2: ETR1_GAF^1–316 (truncation of the Arabidopsis thaliana ethylene receptor ETR1 containing the transmembrane … (Arabidopsis thaliana, UniProt P49333 1-316, AlexaFluor 488-NHS (amine-reactive dye) label))
# T2 construct: Membrane protein kept in Fos-Choline-14; source: E. coli C41(DE3)∆ompF∆acrAB, membranes solubilized in Fos-Choline-14, purified (Ni-NTA IMAC)
# T2 sequence (looked up): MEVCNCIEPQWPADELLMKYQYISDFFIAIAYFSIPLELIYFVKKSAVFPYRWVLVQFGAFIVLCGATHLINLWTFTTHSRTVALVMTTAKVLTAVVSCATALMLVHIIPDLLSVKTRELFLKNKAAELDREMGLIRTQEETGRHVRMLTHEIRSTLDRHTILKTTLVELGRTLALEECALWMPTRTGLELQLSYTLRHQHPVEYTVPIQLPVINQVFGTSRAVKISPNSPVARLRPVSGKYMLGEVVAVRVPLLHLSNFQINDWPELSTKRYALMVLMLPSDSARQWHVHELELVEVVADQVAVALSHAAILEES
# B1: RAN1 degenerate metal binding domain 3 (MBD3) (domain or fragment, Arabidopsis thaliana, UniProt Q9S7J8 205-283, looked up)
# chain: QQDKLVLRVDGILNELDAQVLEGILTRLNGVRQFRLDRISGELEVVFDPEVVSSRSLVDGIEEDGFGKFKLRVMSPYER
# notes: Copper-transporting P-type ATPase RAN1 (HMA7), Arabidopsis thaliana, MBD3, AA 205-283; Cloned into pETEV16b; also called HMA7 MBD3; source: E. coli BL21 Gold (DE3), purified (Ni-NTA IMAC, SEC); not shown: His tag (deca-histidine), N-terminal, kept
# B2: RAN1 metal binding domain 2 (MBD2) (domain or fragment, Arabidopsis thaliana, UniProt Q9S7J8 132-207, looked up)
# chain: TLVGQFTIGGMTCAACVNSVEGILRDLPGVKRAVVALSTSLGEVEYDPNVINKDDIVNAIEDAGFEGSLVQSNQQD
# notes: Copper-transporting P-type ATPase RAN1 (HMA7), Arabidopsis thaliana, MBD2, AA 132-207; Cloned into pETEV16b (pET-16b derivative with a TEV site); no tag cleavage is described; also called HMA7 MBD2; source: E. coli BL21 Gold (DE3), purified (Ni-NTA IMAC, SEC)
# B3: RAN1 metal binding domain 1 (MBD1) (domain or fragment, Arabidopsis thaliana, UniProt Q9S7J8 55-130, looked up)
# chain: LRKIQVGVTGMTCAACSNSVEAALMNVNGVFKASVALLQNRADVVFDPNLVKEEDIKEAIEDAGFEAEILAEEQTQ
# notes: Copper-transporting P-type ATPase RAN1 (HMA7), Arabidopsis thaliana, MBD1, AA 55-130; Cloned into pETEV16b (pET-16b derivative with a TEV site); no tag cleavage is described; also called HMA7 MBD1; source: E. coli BL21 Gold (DE3), purified (Ni-NTA IMAC, SEC)
# Molecular target: T1, Arabidopsis copper chaperone CCH
# Test: MST; AlexaFluor488-labelled ATX1 or CCH 100 nM, MBDs titrated (MBD1 300 µM to 0.19 nM, MBD2 100 µM to 0.19 nM, MBD3 100 µM to 0.06 nM); 300 mM NaCl, 50 mM HEPES pH 7.2 with Tween20 and glycerol; room temperature; initial fluorescence analysed; one-site binding model; apparent KD
# Details: both partners purified
row,Kd [nM],Binder
1,88.5 ± 78.2,B1
2,2280 ± 990,B2
3,3160 ± 684,B3

# Molecular target: Arabidopsis copper transport protein ATX1 (Arabidopsis thaliana)
# Test: as above
# Details: not given
row,Kd [nM],Binder
1,105,B1
2,239,B2
3,155,B3

# Molecular target: T2, ETR1_GAF^1–316 (truncation of the …)
# Test: MST; AlexaFluor488-labelled ETR1_GAF 50 nM, MBDs titrated 100 µM to 24.4 nM; 300 mM NaCl, 50 mM HEPES pH 7.2 with Fos-Choline-14 and glycerol; room temperature; thermophoresis with T-jump; one-site binding model; apparent KD
# Details: both partners purified
row,Kd [nM],Binder
1,8300 ± 6600,B1
2,22300 ± 12100,B2
3,13300 ± 4400,B3
